Target: T1, hYSK1 on the ProtoArray Human Protein Microarray (human, UniProt O00506 1-426)
T1 construct: hYSK1, human Ste20 family serine/threonine protein kinase; one of 1,800 recombinant human proteins on the array; also called human analog of YSK1; source: bought: ProtoArray Human Protein Microarray (v.1.0), recombinant human protein printed on nitrocellulose slide
Test: peptide or protein array; ProtoArray Human Protein Microarray (v.1.0), 1,800 recombinant human proteins on nitrocellulose slides, blocked and probed with biotin-labeled p16^INK4a; detected with streptavidin-Alexa Fluor 647
Conditions: both partners purified

T1 sequence (O00506 whole entry): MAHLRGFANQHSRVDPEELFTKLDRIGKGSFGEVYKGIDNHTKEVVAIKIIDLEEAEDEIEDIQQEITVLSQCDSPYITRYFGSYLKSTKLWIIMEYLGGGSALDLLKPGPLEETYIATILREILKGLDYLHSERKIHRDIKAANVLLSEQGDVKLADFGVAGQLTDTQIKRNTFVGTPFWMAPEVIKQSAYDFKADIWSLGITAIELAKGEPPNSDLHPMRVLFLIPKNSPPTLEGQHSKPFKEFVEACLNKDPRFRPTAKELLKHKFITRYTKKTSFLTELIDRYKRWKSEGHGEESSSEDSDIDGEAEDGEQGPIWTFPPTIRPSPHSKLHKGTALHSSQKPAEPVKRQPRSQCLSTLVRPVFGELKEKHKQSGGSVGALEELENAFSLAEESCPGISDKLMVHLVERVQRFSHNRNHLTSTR

B1: biotin-labeled p16^INK4a (natural protein, UniProt P42771 1-156, looked up)
chain: MEPAAGSSMEPSADWLATAAARGRVEEVRALLEAGALPNAPNSYGRRPIQVMMMGSARVAELLLLHGAEPNCADPATLTRPVHDAAREGFLDTLVVLHRAGARLDVRDAWGRLPVDLAEELGHRDVARYLRAAAGGTRGSNHARIDAAEGPSDIPD
modifications: biotin (biotinylated; site not stated)
notes: probe for the protein microarray
B1: binds.

— article PMC5687670, “hYSK1 promotes cancer cell proliferation and migration through negative regulation of p16^INK4a under hypoxic conditions” (Oncotarget, 2017)
